Assay results as given in patent US20050054571A1, “Antimicrobial proteins from the SPO1 bacteriophage” (Rice University, priority 2003, published 2005).

B1: Gene 44: product of SPO1 host-takeover gene 44, SEQ ID NO: 8 (protein)
chain: MAKSNNVYVVNGEEKVSTLAEVAKVLGVSRVSKKDVEEGKYDVVVEEAAVSLADTEEVVEEVVTEEEDILEGVEVVEDEEEEEAAEDVEEPTSEEDSEDEWEEGYPVATEVEEDEDEEIEYPEVGDFEDEKAIKKYIKGLTDEQLQAWCELEGAEWVENEHRNINRMRMAMAIKAVHFPELAKKPSSKKKSKYAEYTTEELVEMAIDNNVEVRDDKGNERILRMYTIIALREAGLIS
modifications: SPO1 Bacteriophage
B2: Gene 51: product of SPO1 host-takeover gene 51, SEQ ID NO: 15 (protein)
chain: MAKINKGYVANFIEENGFPEQGHFEEKKDLQAFYKHLSTEQLEEWVELEGLEVKDTDSDSIYRMRLCMAILYLNFPKKTAGKKKASPYKHISLEELVQMATDNDIEVKHTDSDKILRMRTIMALKEAGKLG
modifications: SPO1 Bacteriophage
B3: Gene 56: product of SPO1 host-takeover gene 56, SEQ ID NO: 20 (protein)
chain: MFKYTDRSVRQYIERQQRSAMLEQEQAEKDKKERRKAGLLFFGTIVVLVAVVAVYIVPQSLDAMWHENYEKPAQEAARN
modifications: SPO1 Bacteriophage

Tests used:
[1] = tested on: bacterial DNA, RNA, and protein synthesis; conditions: uninfected cells of either B. subtilis or E. coli; Wei and Stewart, 1993, 1995; cited from earlier work
B. subtilis [2] = experiment: Effect of induced expression of cloned SPO1 genes on growth and viability of B. subtilis (liquid medium and colony formation); assay type: cell-based; conditions: cloned gene(s) expressed from IPTG-inducible promoter, * = lethality conclusion based on failure to clone, ** = data not conclusive
Source text: (§1) For analysis of antimicrobial activity we first cloned most of the 24 host-takeover genes (genes 37-60) singly or in multiple gene combinations into a B. subtilis/E. coli shuttle vector (pPW19) under control of an IPTG-inducible promoter (Wei and Stewart, 1993). […] These remaining genes are being cloned using expression vectors with more tightly regulated promoters, such as pJONEX4 (Sayers, 1996), pET101, or pX (Kim et al., 1996). The transformed E. coli and B. subtilis were used to determine the antimicrobial activity, if any, of the cloned genes. The effect of induction on bacterial growth and viability was measured both in liquid medium and by colony formation. Definitive establishment of lethality was shown by loss of the ability to form colonies even after removal from the inducing agent. Indication of probable lethality was based on total inability to form colonies under inducing conditions.

[3] = tested on: E. coli strain DH5(pPW27); experiment: Killing of E. coli by IPTG-induced expression in liquid medium, viable cells counted by plating without inducer (FIG. 8); assay type: cell-based; conditions: within three hours after induction at time 0 (0.2 mM IPTG), plating in the absence of inducer
Protocol: FIG. 8. Expression of SPO1 GP44 in E. coli. Cells of E. coli strain DH5(pPW27), which expresses SPO1 gene 44 from an IPTG-inducible promoter, were transformed either with vector pACYC177 or with plasmid pPW40, in which the mutant ipoB gene had been cloned in pACYC177. Aliquots of the two cultures were induced by adding 0.2 mM IPTG at time 0, and were assayed for viable cells at various times thereafter, by plating on media lacking IPTG. Open symbols, no IPTG; Closed symbols, 0.2 mM IPTG added at time 0; Squares, mutant rpoB; and Circles, no mutant rpob. Viable cell count is expressed in cells/ml ×10^−6.
(§2) In cells growing in liquid medium, expression of the cloned gene 44 was induced at time 0. At subsequent times, the number of cells remaining viable was measured by plating in the absence of inducer. More than 99% of the cells were killed within three hours.

E. coli = experiment: Effect of induced expression of cloned SPO1 genes on growth and viability of E. coli (liquid medium and colony formation); assay type: cell-based; conditions: cloned gene(s) expressed from IPTG-inducible promoter, * = lethality conclusion based on failure to clone, ** = data not conclusive
Source text: as §1

[4] = tested on: bacterial DNA, RNA, and protein synthesis; experiment: DNA, RNA and protein synthesis in uninfected bacteria expressing cloned SPO1 genes; assay type: cell-based, B. subtilis or E. coli; conditions: expression of cloned gene(s) in uninfected cells
Protocol: Pulse Labeling: Rates of synthesis of host and phage RNA or protein were measured in C4 medium as described previously (Wei and Stewart, 1993), by pulse-labeling for 5 minutes with [5-^3H]uridine, or [4,5-^3H]leucine, precipitating with TCA, and counting the precipitate. Since SPO1 DNA contains hmUra in place of thymine, host DNA synthesis could be measured independently by pulsing with [methyl-^3H]thymidine. Phage DNA synthesis was measured by pulsing with [2,8-^3H]adenine, and measuring alkali-stable, TCA-precipitable counts. Pulsing with [2,8-^3H]adenine measures host as well as phage DNA synthesis, but most host DNA synthesis has been shut off by the time that phage replication begins, even in mutant infections, so incorporation of label after 12 minutes is overwhelmingly into phage DNA. The time given for each pulse is the time at which the pulse began.
Adding gene 50 to the 51 clone increases its lethal efficiency, as does combining all 3 genes in a single clone. […] Mutants resistant to genes 51/50 have been isolated, but the mutant gene(s) have not yet been identified. […] The effects on DNA and protein synthesis are probably indirect effects of the inhibition of host RNA synthesis.
The simplest hypothesis as to how GP44/50/51 regulate gene expression is that they interact with the host's RNAP to change its transcriptional specificity. […]

B. subtilis [5] = experiment: Effect of gene expression on cell division of B. subtilis; assay type: cell-based; conditions: expression of the gene alone in B. subtilis
Source text: Genes 58-56: Expression of the whole operon is lethal to both species. […] Infection by SPO1 inhibits cell division, and a gene 56 mutation prevents that inhibition. B. subtilis mutants resistant to GP56 have been isolated, but the mutant gene(s) has not yet been identified.

bacteria = experiment: Toxicity or lethality of expression of cloned SPO1 genes, bacterium not given; assay type: cell-based
Source text: as §1, §2

Molecule	effect of expression on bacterial RNA synthesis and viability [1]	Lethality, B. subtilis (B. subtilis [2]; listed as 44)	cells killed [3]	Lethality, E. coli (E. coli; listed as 44)	effect of expression on bacterial DNA, RNA and protein synthesis [4]	Lethality, B. subtilis (B. subtilis [2]; listed as 51)	Lethality, E. coli (E. coli; listed as 51)	effect on cell division (B. subtilis [5])	Lethality, B. subtilis (B. subtilis [2]; listed as 56)	toxicity or lethality of expression (bacteria)	Lethality, E. coli (E. coli)
B1	caused the shutoff of bacterial RNA synthesis and cell death	Lethal	More than 99%	Lethal	inhibiting DNA, RNA, and protein synthesis						
B2					inhibiting DNA, RNA, and protein synthesis	Lethal	Lethal				
B3								specifically inhibiting cell division, without affecting DNA synthesis or chromosomal segregation	Lethal	lethal effect	Mildly toxic
